Experimental data taken from patent US12091391B2, “Reagents and methods for bioorthogonal labeling of biomolecules in living cells” (Oregon State University, priority 2015, dated 2024).

Assay: UP50 characterization of select synthetases (GFP fluorescence versus Tet-v3.0 concentration)
Format: cell-based, E. coli
Settings: fluorescence normalized to optical density, amino acid Tet-v3.0 (methyl)
Excerpt: The UP50 value is a measure of amino acid concentration at which cells containing a given synthetase produces half of the maximum amount of unnatural protein containing the amino acid of interest. In this way the UP50 is dependent both on the synthetase and amino acid of interest. This value is obtained by measuring the fluorescence of produced GFP at various concentrations of amino acids and fitting measured values to the curve:
UP is the measured fluorescence, [AA] is the amino acid concentration, and UPmax is the maximum protein produced. The methodology for obtaining UP50 and UPmax values is described below.
Non-inducing media starter cultures containing Tcn (25 μg/mL) and Kn (50 μg/mL) were grown overnight (37° C., 18 hrs). Starter cultures consisted of E. coli DH10B transformed with a pBK plasmid containing the synthetases of interest (R2-40, R2-74, and R2-84) and tRNA, as well as a pALS plasmid containing an amber codon interrupted GFP gene under control of an araBAD promoter. Starters were used to inoculate (30 μL) autoinducing media (3 mL) containing Tcn (25 μg/mL), Kn (50 μg/mL), and Tet-v3.0 at various concentrations. Tet-v3.0 concentrations were varied from 0.005 mM to 1 mM with duplicates for each concentration. As a control, media was inoculated in duplicate containing no amino acid. To aid in dissolution, 30 μL of N,N-dimethyl formamide (DMF) was added to the Tet-v3.0 prior to addition to media.
The fluorescence and optical density of the media was measured after 24, 36, and 48 hrs. The fluorescence normalized to the optical density was plotted across Tet-v3.0 concentrations and used to calculate the UP50 and UPmax for individual synthetases (see FIG. 16. FIG. 16 compares UP50 titration curves for three Tet-v3.0-methyl incorporating synthetases: R2-40, R2-74, and R2-84. UP50 and UPmax values are obtained from the fit of the curves. The R2-74 synthetase was moved into eukaryotic plasmids for protein expression.

Molecule	UPmax
R2-40: M. barkeri PylRS synthetase hit for Tet-v3.0: N311G, C313A, K296R (protein, UniProt Q46E77 1-419, looked up, variant N311G C313A K296R) Pyrrolysine--tRNA ligase: MDKKPLDVLISATGLWMSRTGTLHKIKHYEVSRSKIYIEMACGDHLVVNNSRSCRTARAFRHHKYRKTCKRCRVSDEDINNFLTRSTEGKTSVKVKVVSAPKVKKAMPKSVSRAPKPLENPVSAKASTDTSRSVPSPAKSTPNSPVPTSAPAPSLTRSQLDRVEALLSPEDKISLNIAKPFRELESELVTRRKNDFQRLYTNDREDYLGKLERDITKFFVDRDFLEIKSPILIPAEYVERMGINNDTELSKQIFRVDKNLCLRPMLAPTLYNYLRKLDRILPDPIKIFEVGPCYRRESDGKEHLEEFTMVGFAQMGSGCTRENLESLIKEFLDYLEIDFEIVGDSCMVYGDTLDIMHGDLELSSAVVGPVPLDREWGIDKPWIGAGFGLERLLKVMHGFKNIKRASRSESYYNGISTNL	540
R2-84: M. barkeri PylRS synthetase hit for Tet-v3.0: L270G, N311G, C313A, R263C (protein, UniProt Q46E77 1-419, looked up, variant L270G N311G C313A R263C) Pyrrolysine--tRNA ligase: MDKKPLDVLISATGLWMSRTGTLHKIKHYEVSRSKIYIEMACGDHLVVNNSRSCRTARAFRHHKYRKTCKRCRVSDEDINNFLTRSTEGKTSVKVKVVSAPKVKKAMPKSVSRAPKPLENPVSAKASTDTSRSVPSPAKSTPNSPVPTSAPAPSLTRSQLDRVEALLSPEDKISLNIAKPFRELESELVTRRKNDFQRLYTNDREDYLGKLERDITKFFVDRDFLEIKSPILIPAEYVERMGINNDTELSKQIFRVDKNLCLCPMLAPTGYNYLRKLDRILPDPIKIFEVGPCYRKESDGKEHLEEFTMVGFAQMGSGCTRENLESLIKEFLDYLEIDFEIVGDSCMVYGDTLDIMHGDLELSSAVVGPVPLDREWGIDKPWIGAGFGLERLLKVMHGFKNIKRASRSESYYNGISTNL	517
R2-74: M. barkeri PylRS synthetase hit for Tet-v3.0: L270G, N311G, C313S (protein, UniProt Q46E77 1-419, looked up, variant L270G N311G C313S) Pyrrolysine--tRNA ligase: MDKKPLDVLISATGLWMSRTGTLHKIKHYEVSRSKIYIEMACGDHLVVNNSRSCRTARAFRHHKYRKTCKRCRVSDEDINNFLTRSTEGKTSVKVKVVSAPKVKKAMPKSVSRAPKPLENPVSAKASTDTSRSVPSPAKSTPNSPVPTSAPAPSLTRSQLDRVEALLSPEDKISLNIAKPFRELESELVTRRKNDFQRLYTNDREDYLGKLERDITKFFVDRDFLEIKSPILIPAEYVERMGINNDTELSKQIFRVDKNLCLRPMLAPTGYNYLRKLDRILPDPIKIFEVGPCYRKESDGKEHLEEFTMVGFSQMGSGCTRENLESLIKEFLDYLEIDFEIVGDSCMVYGDTLDIMHGDLELSSAVVGPVPLDREWGIDKPWIGAGFGLERLLKVMHGFKNIKRASRSESYYNGISTNL	400
